Reference: patent US20220403041A1 (Sanofi, published 2022)
Values belong to the binder of their own block, whether it stands above or below them.

Key:
soluble CD73 dimer [1] = biological target: T1, soluble CD73 dimer (human, UniProt P21589 27-549, limits assumed); assay: SPR, antibody on the solid support, soluble CD73 dimer in solution
T1 construct: CD73 in the flow (SPR) or in solution (BLI binning); also called soluble human CD73
T1 sequence: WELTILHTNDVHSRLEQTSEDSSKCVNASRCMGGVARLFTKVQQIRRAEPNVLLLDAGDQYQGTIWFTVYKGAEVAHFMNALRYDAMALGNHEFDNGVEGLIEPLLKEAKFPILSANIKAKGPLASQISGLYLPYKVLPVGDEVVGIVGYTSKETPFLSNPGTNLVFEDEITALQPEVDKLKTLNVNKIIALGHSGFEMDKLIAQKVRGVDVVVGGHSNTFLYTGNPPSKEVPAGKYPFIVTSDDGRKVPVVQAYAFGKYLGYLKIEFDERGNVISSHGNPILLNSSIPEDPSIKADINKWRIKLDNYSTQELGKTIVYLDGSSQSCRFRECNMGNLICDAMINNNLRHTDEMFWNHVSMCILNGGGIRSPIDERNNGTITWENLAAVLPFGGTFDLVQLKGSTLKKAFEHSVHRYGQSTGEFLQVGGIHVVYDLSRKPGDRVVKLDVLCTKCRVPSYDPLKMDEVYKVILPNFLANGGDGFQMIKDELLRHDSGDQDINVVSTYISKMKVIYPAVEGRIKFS

[2] = biological target: T2, human CD73 on COR-L23 lung carcinoma cells (human) (UniProt P21589); assay: cell-based or functional assay
T2 sequence: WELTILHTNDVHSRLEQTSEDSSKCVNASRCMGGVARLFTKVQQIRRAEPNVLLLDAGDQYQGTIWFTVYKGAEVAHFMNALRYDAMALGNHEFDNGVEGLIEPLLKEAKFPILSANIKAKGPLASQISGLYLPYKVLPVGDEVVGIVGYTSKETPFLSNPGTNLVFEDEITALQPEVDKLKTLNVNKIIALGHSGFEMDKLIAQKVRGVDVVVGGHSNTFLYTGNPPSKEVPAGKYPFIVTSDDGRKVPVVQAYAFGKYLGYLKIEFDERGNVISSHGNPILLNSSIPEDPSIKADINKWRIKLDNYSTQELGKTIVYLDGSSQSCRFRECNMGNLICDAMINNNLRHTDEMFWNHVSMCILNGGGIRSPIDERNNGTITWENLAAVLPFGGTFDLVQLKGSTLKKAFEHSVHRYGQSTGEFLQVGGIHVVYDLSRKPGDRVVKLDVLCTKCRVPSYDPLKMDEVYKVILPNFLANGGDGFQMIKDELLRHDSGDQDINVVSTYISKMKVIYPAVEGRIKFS

soluble CD73 dimer [3] = biological target: T1, soluble CD73 dimer; assay: SPR; KD from Langmuir ka and kd of the principal dissociation component
soluble CD73 dimer [4] = biological target: T1, soluble CD73 dimer; assay: SPR, antibody captured on chip, CD73 in flow; biphasic fit, share after 300 s binding phase of the component with ka 1.50E+06 1/Ms
soluble CD73 dimer [5] = biological target: T1, soluble CD73 dimer; assay: SPR, antibody captured on chip, CD73 in flow; biphasic fit, share by T0 intercept of the component with kd 7.86E-05 1/s
soluble CD73 dimer [6] = biological target: T1, soluble CD73 dimer; assay: SPR, antibody captured on Protein A chip, CD73 in flow; Langmuir ka with major component kd
soluble CD73 dimer [7] = biological target: T1, soluble CD73 dimer; assay: SPR dissociation kinetics
soluble CD73 dimer [8] = biological target: T1, soluble CD73 dimer; assay: SPR, antibody captured on chip, CD73 in flow; biphasic fit, share after 300 s binding phase of the component with ka 3.24E+05 1/Ms
soluble CD73 dimer [9] = biological target: T1, soluble CD73 dimer; assay: SPR, antibody captured on Protein A chip, CD73 in flow; biphasic fit, component of abundance 30%
soluble CD73 dimer [10] = biological target: T1, soluble CD73 dimer; assay: SPR, antibody captured on Protein A chip, CD73 in flow; biphasic fit, component of abundance 14%
soluble CD73 dimer [11] = biological target: T1, soluble CD73 dimer; assay: SPR, antibody captured on Protein A chip, CD73 in flow; Langmuir 1:1 fit
soluble CD73 dimer [12] = biological target: T1, soluble CD73 dimer; assay: SPR, antibody captured on Protein A chip, CD73 in flow; biphasic fit, component of abundance 86%
soluble CD73 dimer [13] = biological target: T1, soluble CD73 dimer; assay: SPR, antibody captured on chip, CD73 in flow; biphasic fit, share by T0 intercept of the component with kd 7.06E-03 1/s
soluble CD73 dimer [14] = biological target: T1, soluble CD73 dimer; assay: SPR, antibody captured on Protein A chip, CD73 in flow; biphasic fit, component of abundance 70%
[15] = biological target: T3, human CD73 on COR-L23 lung carcinoma cells (human, UniProt P21589 27-549); assay: cell-based or functional assay
T3 sequence: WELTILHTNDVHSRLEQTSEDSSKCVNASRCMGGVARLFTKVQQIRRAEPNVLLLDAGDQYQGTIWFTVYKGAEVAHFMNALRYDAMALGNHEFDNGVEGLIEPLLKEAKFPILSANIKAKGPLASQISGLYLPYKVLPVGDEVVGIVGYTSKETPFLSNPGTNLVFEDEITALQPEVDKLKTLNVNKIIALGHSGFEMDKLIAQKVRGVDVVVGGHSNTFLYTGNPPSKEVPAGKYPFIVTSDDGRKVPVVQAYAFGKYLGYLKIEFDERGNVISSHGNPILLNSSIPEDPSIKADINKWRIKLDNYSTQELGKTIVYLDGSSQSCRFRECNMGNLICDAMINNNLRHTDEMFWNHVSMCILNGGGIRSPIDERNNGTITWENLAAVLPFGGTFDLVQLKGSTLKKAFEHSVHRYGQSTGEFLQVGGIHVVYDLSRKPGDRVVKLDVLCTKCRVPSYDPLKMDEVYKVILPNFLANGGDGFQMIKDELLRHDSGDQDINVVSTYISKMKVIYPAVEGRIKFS

soluble CD73 dimer [16] = biological target: T1, soluble CD73 dimer; assay: SPR, antibody captured on Protein A chip, CD73 in flow; biphasic fit, component of abundance 45%
soluble CD73 dimer [17] = biological target: T1, soluble CD73 dimer; assay: SPR, antibody captured on chip, CD73 in flow; biphasic fit, share after 300 s binding phase of the component with ka 7.03E+05 1/Ms
soluble CD73 dimer [18] = biological target: T1, soluble CD73 dimer; assay: SPR, antibody captured on chip, CD73 in flow; biphasic fit, share after 300 s binding phase of the component with ka 5.31E+06 1/Ms
[19] = biological target: T2, human CD73 on COR-L23 lung carcinoma cells (human)
soluble CD73 dimer [20] = biological target: T1, soluble CD73 dimer; assay: SPR, antibody captured on chip, CD73 in flow; biphasic fit, share by T0 intercept of the component with kd 2.46E-04 1/s
soluble CD73 dimer [21] = biological target: T1, soluble CD73 dimer; assay: SPR, antibody captured on Protein A chip, CD73 in flow; biphasic fit, component of abundance 100%
soluble CD73 dimer [22] = biological target: T1, soluble CD73 dimer; assay: SPR, antibody captured on Protein A chip, CD73 in flow; biphasic fit, component of abundance 55%

fold lower KD than either parental antibody (soluble CD73 dimer [1]): 15 fold
EC50 (nM) of inhibition of CD73 activity (adenosine by LC/MS) [2]: 0.619 nM
Max Inhib. (projected maximal inhibition at saturating antibody) [2]: 97%
fold increase of apparent affinity (KD) over either monovalent parental antibody (soluble CD73 dimer [3]): 26 fold
abundance of association component (biphasic fit) (soluble CD73 dimer [4]): 30%
abundance of dissociation component (biphasic fit) (soluble CD73 dimer [5]): 86%
Kd (soluble CD73 dimer [6]): 0.16 nM
fold more stable (kd of the principal component) than with either monovalent parental (soluble CD73 dimer [7]): 8.8 fold
abundance of association component (biphasic fit) (soluble CD73 dimer [8]): 70%
kon (soluble CD73 dimer [9]): 1.5e+06 M⁻¹ s⁻¹
koff (soluble CD73 dimer [10]): 0.00706 s⁻¹
koff (soluble CD73 dimer [11]): 0.00013 s⁻¹
kon (soluble CD73 dimer [11]): 493000 M⁻¹ s⁻¹
koff (soluble CD73 dimer [12]): 7.86e-05 s⁻¹
abundance of dissociation component (biphasic fit) (soluble CD73 dimer [13]): 14%
kon (soluble CD73 dimer [14]): 324000 M⁻¹ s⁻¹
B1: CL25/TB19 (bispecific antibody, part only; not given: CL25 arm; constant regions, V domains shown, part only)
VH: QEQLQESGPGLVKPSETLSLTCTVSGGSIRNNYYNWIRQPAGKGLEWIGRIYISGTTNSNPSLKSRVTMSIDTSKNQFSLKLSSVTAADTAIYYCAREHYVSGTSLDNWGQGTLVTVSS
VL: EIVMTQSPTTLSLSPGERATLSCRASQSVNTNYFSWYQQKPGLTPRLLIYGTSTRATGIPARFSGSGSGTDFTLTISSLQPEDFGIYYCQQDYNLPYTFGQGTYLEIK

Kd (soluble CD73 dimer [6]): 0.555 nM
EC50 (nM) of inhibition of CD73 activity (adenosine by LC/MS) [15]: 0.777 nM
koff (soluble CD73 dimer [11]): 0.000102 s⁻¹
kon (soluble CD73 dimer [11]): 184000 M⁻¹ s⁻¹
B2: TB19/TB38 (bispecific antibody, V domains shown)
VH 1: QEQLQESGPGLVKPSETLSLTCTVSGGSIRNNYYNWIRQPAGKGLEWIGRIYISGTTNSNPSLKSRVTMSIDTSKNQFSLKLSSVTAADTAIYYCAREHYVSGTSLDNWGQGTLVTVSS
VL 1: EIVMTQSPTTLSLSPGERATLSCRASQSVNTNYFSWYQQKPGLTPRLLIYGTSTRATGIPARFSGSGSGTDFTLTISSLQPEDFGIYYCQQDYNLPYTFGQGTYLEIK
VH 2: QVQLVESGGGVVQPGRSLRLSCAASGFTFSSYGMHWVRQAPGKGLEWVAVFWYDGSNKYYADSVKGRFTISRDNSKNTLYLQMNSLSAEDTAVYYCARAPNWDDAFDIWGQGTMVTVSS
VL 2: QTVVTQEPSFSVSPGGTVTLTCGLSSGSVSTSYYPNWYQQTPGQAPRTLIYSTNTRSSGVPDRFSGSILGNKAALTITGAQADDESDYYCVLFMGSGIWVFGGGTKLTVL
notes: Biparatopic human IgG1 made by Fab-arm exchange; also called TB19/TB38 biparatopic antibody

kon (soluble CD73 dimer [16]): 5.31e+06 M⁻¹ s⁻¹
EC50 (nM) of inhibition of CD73 activity (adenosine by LC/MS) [2]: 0.27 nM
Max Inhib. (projected maximal inhibition at saturating antibody) [2]: 95%
abundance of association component (biphasic fit) (soluble CD73 dimer [17]): 55%
abundance of association component (biphasic fit) (soluble CD73 dimer [18]): 45%
% inhibition of CD73 activity at 1 µg/ml antibody (COR-L23 cells, 4 h, LC/MS); cell TB19 x H7 [19]: 93%
Kd (soluble CD73 dimer [6]): 0.328 nM
abundance of dissociation component (biphasic fit) (soluble CD73 dimer [20]): 100%
koff (soluble CD73 dimer [11]): 0.000149 s⁻¹
kon (soluble CD73 dimer [11]): 752000 M⁻¹ s⁻¹
koff (soluble CD73 dimer [21]): 0.000246 s⁻¹
kon (soluble CD73 dimer [22]): 703000 M⁻¹ s⁻¹
B3: TB19/H7 (bispecific antibody, part only; not given: H7 arm; constant regions, V domains shown, part only)
VH: QEQLQESGPGLVKPSETLSLTCTVSGGSIRNNYYNWIRQPAGKGLEWIGRIYISGTTNSNPSLKSRVTMSIDTSKNQFSLKLSSVTAADTAIYYCAREHYVSGTSLDNWGQGTLVTVSS
VL: EIVMTQSPTTLSLSPGERATLSCRASQSVNTNYFSWYQQKPGLTPRLLIYGTSTRATGIPARFSGSGSGTDFTLTISSLQPEDFGIYYCQQDYNLPYTFGQGTYLEIK
